Reference: patent US7479480B2, “Peptides that promote lipid efflux” (Lipid Sciences, Inc., priority 2006, dated 2009)
Ends that are not written are not given here.

Legend:
[1] = target: T1, SR-B1 (Rattus norvegicus, UniProt P97943); assay: SR-BI mediated cholesterol efflux; type: cell-based; conditions: for SR-BI Mediated Efflux % Per 4 h: minus blank; for cholesterol efflux from the Fu5AH cells (SRB1 pathway): result in words
T1 construct: endogenous in cells; host or cells: Fu5AH rat hepatoma cells
T1 sequence (P97943 1-509): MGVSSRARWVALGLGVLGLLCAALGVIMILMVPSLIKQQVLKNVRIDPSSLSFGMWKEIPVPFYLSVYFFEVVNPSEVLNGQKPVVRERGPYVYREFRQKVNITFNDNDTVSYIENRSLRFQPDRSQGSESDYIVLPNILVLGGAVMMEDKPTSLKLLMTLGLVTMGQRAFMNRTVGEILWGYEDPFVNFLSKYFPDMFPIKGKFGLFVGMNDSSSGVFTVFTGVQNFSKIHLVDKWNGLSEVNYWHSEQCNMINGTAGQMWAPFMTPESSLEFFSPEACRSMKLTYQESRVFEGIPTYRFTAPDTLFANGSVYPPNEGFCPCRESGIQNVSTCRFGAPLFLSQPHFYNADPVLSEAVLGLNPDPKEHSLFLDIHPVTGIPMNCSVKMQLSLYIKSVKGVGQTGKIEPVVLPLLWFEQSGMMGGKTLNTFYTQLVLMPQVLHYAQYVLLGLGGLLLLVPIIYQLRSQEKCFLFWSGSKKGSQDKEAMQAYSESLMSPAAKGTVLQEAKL
From the text: (§1) The methods employed in this study have been described in U.S. Pat. Nos. 7,029,863, 7,060,452, U.S. Patent Application Publication No. 2005/0191715, and in Moya et al., Arteriosclerosis & Thrombosis 1994:14:1056-1065 and Liu et al., J. Biol. Chem., 2003:278(44), 42976-42984. SR-B1 mediated cholesterol efflux was examined in FU5AH rat hepatoma cells and ABCA1 mediated cholesterol efflux was examined in J774 mouse macrophage cells as described in these references.
(§2) J774 macrophages and Fu5AH […] in culture were used to determine the specificity of SEQ ID NO: 602 to efflux cholesterol by the ABCA-I or SRBI pathways using the methods of de la Llera Moya, M., V., et al. “A cell culture system for screening human serum for ability to promote cellular cholesterol efflux. Relations between serum components and efflux, esterification, and transfer.” Arterioscler. Thromb. 14: 1056-1065 (1994). Anti-inflammatory properties were evaluated by determination of inhibition of expression of activated CD11B human monocytes and suppression of cytokine-induced vascular cell adhesion molecule-1, V-CAM, expression in human coronary artery endothelial cells (HCAECs).

[2] = tested on: vascular cell adhesion molecule-1; assay: Cytokine-induced V-CAM expression in human coronary artery endothelial cells; type: cell-based; conditions: initial data; p<0.05
Procedure: as §2

[3] = target: T2, ABCA1 (Mus musculus, UniProt P41233); assay: ABCA1 mediated cholesterol efflux; type: cell-based; parameters: +ABCA1 Cells / −ABCA1 Cells: unit not given here; conditions: for cholesterol efflux via the ABCA-I pathway: Example 17, J774 macrophages; for +ABCA1 Cells / −ABCA1 Cells / ABCA1 Mediated Efflux % Per 4 h: minus blank; for dose dependence of cholesterol efflux from cells containing the ABCA1 pathway (FIG. 3): range of 5 ug/ml to 30 ug/ml; for efflux of cholesterol from J774 macrophage cells (ABCA1 pathway): result in words
T2 construct: endogenous in cells; host or cells: J774 mouse macrophage cells
From the text: as §1, §2

[4] = tested on: CD11b; assay: CD11b expression in stimulated monocytes by flow cytometry; type: cell-based, human; conditions: for PMA-induced CD11b expression in human monocytes: 20 μg/ml, PMA 1 μmol/L, FIG. 2
Procedure: Monocyte Isolation Peripheral whole blood (PWB) was drawn from healthy consenting individuals into syringes containing sodium citrate (final concentration—19.2 mM). Resting human monocytes were isolated from PWB by density centrifugation with Lymphoprep (Axis Shield). Mononuclear cells (MNCs) were collected and monocytes were further separated to purity using the Dynal negative isolation kit (Invitrogen). Monocytes were resuspended in phosphate buffered saline (PBS) and cell number was determined counting cell suspension on an automated hematology analyzer (Sysmex, KX-21N, USA).
Flow Cytometry 100 μL of monocytes were stimulated with either 1 μmol/L phorbol-myristate-acetate (PMA) or 1 μg/ml lipopolysaccharide (LPS) (Sigma, Australia) in the presence or absence of apoA-1 (20 μg/ml), or 20 μg/ml of the test peptide SEQ ID NO: 602 (Ac-[…]NH2), each tested separately. The cells were incubated with the FITC conjugated antibody to either the active epitope of CD11b (eBiosciences, USA, Clone CBRM1/5) or total CD11b (Serotec, USA, Clone ICRF44) for 15 min at 37° C. Cells were then fixed with 4% para-formaldehyde. Samples were controlled for by using the appropriately matched isotype matched negative control (FITC-anti-mouse IgG) (Serotec, USA, Clone W3/25). CD11b expression was measured by flow cytometry using FACS Calibur (Becton Dickinson). Analysis was conducted using the Cell Quest Pro software.
Statistical Analysis Values are presented as the mean±SD or percentage of control±SD. FACS results were analyzed for statistical significance using one-way ANOVA followed by Bonferroni post-hoc test. Significance was accepted at P<0.05.
as §2

[5] = tested on: ApoE knockout and LDL receptor knockout mice; assay: Aortic atherosclerosis in ApoE and LDL receptor knockout mice (Example 14); type: in vivo, mouse; conditions: 30 mg/kg ip three times per week, 4-5 or 8-10 weeks
Procedure: The mice receive 3 injections per week for either 4-6 or 8-10 weeks. After the completion of the injection, the amount of hardening of the arteries or atherosclerosis is determined in the control injected animals and peptide injected animals to determine if the injections of the synthetic peptide decreased development of atherosclerosis.
For infusion studies B and C, mice are injected ip with either placebo or a synthetic peptide of the present invention (30 mg/kg) three times per week for either 4 to 5 weeks (Infusion Study B) or 8 to 10 weeks (Infusion Study C). Blood for lipid and lipoprotein analyses is obtained at the beginning of the study (day 0) and every two weeks after placebo/peptide injection and at the completion of the study. At the completion of the study (4 to 5 weeks for Infusion Study B and 8 to 10 weeks for Infusion Study C), the animals are sacrificed, organs harvested for analyses of cholesterol content and for aortic atherosclerosis.
No more than 300 ul blood every two weeks is obtained from each mouse. • 4) At the end of Infusion Study B and C all mice are sacrificed by cervical dislocation following isoflurane anesthesia and organs are harvested for analyses of cholesterol as well as aortic atherosclerosis. Before intraperitoneal injections, brief inhaled analgesia is obtained by isoflurane utilizing the E-Z Rodent Anesthesia System in the procedure room. […]

[6] = tested on: HeLa cells stably transfected with human ABCA1 cDNA; assay: Cholesterol and phospholipid efflux from ABCA1 cells; type: cell-based
Procedure: HeLa cells stably transfected with human ABCA1 cDNA (ABCA1 cells) and HeLa cells transfected with only a hygromycin-resistant control plasmid (control cells) are produced and grown in α-modified Eagle's medium (aMEM) plus 10% fetal calf serum, as described by Remaley et al. (Biochem. Biophys. Res. Commun. 280:818-823, 2001). […] Thromb. Vasc. Biol. 17:1813-1821, 1997). Percentage efflux is calculated after subtracting the radioactive counts in the blank media (aMEM plus 1 mg/ml of BSA), and expressed as the percent of total radioactive counts removed from the cells during the efflux period.
(§3) ABCA1 cells are used to assess the ability of apoA-I and synthetic peptides to efflux lipid from cells. […] The peptides of the present invention efflux approximately 2- to 4-fold more cholesterol and phospholipid from ABCA1 cells than from control cells. Both the peptides of the present invention and apoA-I began to show saturation for lipid efflux at approximately the same protein concentration of 10 μg/ml. The peptides of the present invention remove more cholesterol and phospholipids from control cells than apoA-I.
Cholesterol efflux from ABCA1 cells to apoA-I is first detectable after 2 hours and increases throughout the 30 hour efflux period. […]

[7] = tested on: HeLa cells transfected with only a hygromycin-resistant control plasmid; assay: Cholesterol and phospholipid efflux from control cells; type: cell-based, human; conditions: result in words
Procedure: HeLa cells stably transfected with human ABCA1 cDNA (ABCA1 cells) and HeLa cells transfected with only a hygromycin-resistant control plasmid (control cells) are produced and grown in α-modified Eagle's medium (aMEM) plus 10% fetal calf serum, as described by Remaley et al. (Biochem. Biophys. Res. Commun. 280:818-823, 2001). Cholesterol and phospholipid efflux is performed for 18 hours on noncholesterol-loaded cells radiolabeled with either cholesterol or choline (Remaley et al., Arterioscler. Thromb. Vasc. Biol. 17:1813-1821, 1997). Percentage efflux is calculated after subtracting the radioactive counts in the blank media (aMEM plus 1 mg/ml of BSA), and expressed as the percent of total radioactive counts removed from the cells during the efflux period.
as §3, with “apoA-I. […]” for “apoA-I.”

[8] = FU5AH rat hepatoma cells, peptides at 30 μg/ml
[9] = J774 cells, peptides at 30 μg/ml
[10] = J774 cells, peptides at 30 μg/ml, listed as 5
[11] = J774 mouse macrophage cells, peptides at 30 μg/ml
[12] = J774 cells, peptides at 30 μg/ml, listed as 3
[13] = controls: 2% human serum pool, Apo A-I @ 20 μg/ml

T2 sequence (P41233 whole entry): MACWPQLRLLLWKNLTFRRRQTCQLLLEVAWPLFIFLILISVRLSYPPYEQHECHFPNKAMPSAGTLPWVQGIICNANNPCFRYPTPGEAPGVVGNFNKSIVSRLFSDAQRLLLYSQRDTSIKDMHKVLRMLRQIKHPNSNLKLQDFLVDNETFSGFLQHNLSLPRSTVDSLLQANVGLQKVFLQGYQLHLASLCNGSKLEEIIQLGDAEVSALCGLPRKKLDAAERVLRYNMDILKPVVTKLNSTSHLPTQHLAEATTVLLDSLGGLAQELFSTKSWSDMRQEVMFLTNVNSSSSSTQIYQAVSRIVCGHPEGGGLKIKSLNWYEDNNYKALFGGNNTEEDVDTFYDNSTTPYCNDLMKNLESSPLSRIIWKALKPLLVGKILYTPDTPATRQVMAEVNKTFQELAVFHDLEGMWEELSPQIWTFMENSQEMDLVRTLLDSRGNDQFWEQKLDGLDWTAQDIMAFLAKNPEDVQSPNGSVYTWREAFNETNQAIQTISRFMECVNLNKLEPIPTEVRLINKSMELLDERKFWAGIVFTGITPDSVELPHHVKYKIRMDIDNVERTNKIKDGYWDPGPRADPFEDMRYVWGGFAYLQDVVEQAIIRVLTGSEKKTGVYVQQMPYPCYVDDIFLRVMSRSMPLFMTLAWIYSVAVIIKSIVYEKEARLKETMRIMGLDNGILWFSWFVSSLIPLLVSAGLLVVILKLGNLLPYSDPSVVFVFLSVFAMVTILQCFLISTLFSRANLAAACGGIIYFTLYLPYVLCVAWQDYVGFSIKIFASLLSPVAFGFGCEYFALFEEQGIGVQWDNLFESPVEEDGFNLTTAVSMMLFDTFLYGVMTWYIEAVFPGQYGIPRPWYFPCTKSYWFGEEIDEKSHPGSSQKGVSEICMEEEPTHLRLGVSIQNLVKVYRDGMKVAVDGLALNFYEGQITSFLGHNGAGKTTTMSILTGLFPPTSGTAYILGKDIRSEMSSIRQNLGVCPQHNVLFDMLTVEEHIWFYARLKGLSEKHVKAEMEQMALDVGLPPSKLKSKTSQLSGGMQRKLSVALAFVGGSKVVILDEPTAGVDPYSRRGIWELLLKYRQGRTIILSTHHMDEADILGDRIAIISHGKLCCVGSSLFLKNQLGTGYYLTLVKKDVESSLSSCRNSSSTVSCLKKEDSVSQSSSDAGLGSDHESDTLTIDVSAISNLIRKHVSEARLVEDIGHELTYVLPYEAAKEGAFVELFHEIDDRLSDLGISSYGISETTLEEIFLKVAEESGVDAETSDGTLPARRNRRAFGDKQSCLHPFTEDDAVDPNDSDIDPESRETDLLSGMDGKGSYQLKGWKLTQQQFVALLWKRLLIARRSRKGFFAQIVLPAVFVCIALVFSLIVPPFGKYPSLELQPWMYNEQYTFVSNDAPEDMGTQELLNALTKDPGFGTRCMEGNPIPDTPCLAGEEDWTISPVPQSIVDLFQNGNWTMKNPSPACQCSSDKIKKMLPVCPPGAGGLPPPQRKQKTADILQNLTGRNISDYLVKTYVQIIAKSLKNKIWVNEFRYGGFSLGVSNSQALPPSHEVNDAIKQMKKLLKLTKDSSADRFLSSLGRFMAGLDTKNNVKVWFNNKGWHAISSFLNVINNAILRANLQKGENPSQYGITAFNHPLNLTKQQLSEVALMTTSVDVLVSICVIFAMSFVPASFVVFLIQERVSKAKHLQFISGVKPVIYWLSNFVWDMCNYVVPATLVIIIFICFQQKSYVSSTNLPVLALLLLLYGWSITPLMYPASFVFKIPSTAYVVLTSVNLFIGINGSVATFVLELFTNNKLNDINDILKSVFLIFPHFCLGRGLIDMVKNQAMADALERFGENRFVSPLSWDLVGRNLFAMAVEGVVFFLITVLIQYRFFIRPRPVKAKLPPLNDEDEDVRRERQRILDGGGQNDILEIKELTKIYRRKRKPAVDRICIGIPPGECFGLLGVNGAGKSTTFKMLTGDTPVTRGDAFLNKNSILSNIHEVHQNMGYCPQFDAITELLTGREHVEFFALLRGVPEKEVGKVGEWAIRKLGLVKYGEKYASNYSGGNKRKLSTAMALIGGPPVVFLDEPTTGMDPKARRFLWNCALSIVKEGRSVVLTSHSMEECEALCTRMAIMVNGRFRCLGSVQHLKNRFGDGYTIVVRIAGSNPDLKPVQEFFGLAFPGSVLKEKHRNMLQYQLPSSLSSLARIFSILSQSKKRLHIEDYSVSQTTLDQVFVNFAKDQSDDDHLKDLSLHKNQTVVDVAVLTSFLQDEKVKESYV

| SR-BI Mediated Efflux % Per 4 h [1, 8] | cholesterol efflux from the Fu5AH cells (SRB1 pathway) [1] | +ABCA1 Cells [3, 9] | −ABCA1 Cells [3, 9] | ABCA1 Mediated Efflux % Per 4 h [3, 11] | dose dependence of cholesterol efflux from cells containing the ABCA1 pathway (FIG. 3) [3] | efflux of cholesterol from J774 macrophage cells (ABCA1 pathway) [3] | Substance | cholesterol efflux via the ABCA-I pathway [3] | PMA-induced CD11b expression in human monocytes [4] | aortic atherosclerosis compared to controls [5] | other results |
| --- | --- | --- | --- | --- | --- | --- | --- | --- | --- | --- | --- |
| 0.10 % Per 4 h | negligible or no effect | 12.420 ± 1.019 | 1.224 ± 0.121 | 11.20 % Per 4 h | dose dependent stimulation | stimulated efflux of cholesterol | SPLLESAKVSALSALEEATKKKLSPLLESFKVSFLSALEEYTKKLNTQ [Peptide 4] | – | – | decrease aortic atherosclerosis | – |
| 0.16 % Per 4 h | negligible or no effect | 14.283 ± 0.545 | 1.205 ± 0.211 | 13.08 % Per 4 h | dose dependent stimulation | stimulated efflux of cholesterol | Ser Pro Leu Ser Asp Glu Lcu Arg Gln Arg Lcu Ala Ala Arg Lcu Glu Ala Leu Lys Glu Asn Lys Leu Ser Pro Leu Leu Glu Ser Phe Lys Val Ser Phe Leu Ser Ala Leu Glu Glu Tyr Thr Lys Lys Leu Asn Thr Gln (SPLSDELRQRLAARLEALKENKLSPLLESFKVSFLSALEEYTKKLNTQ) [Peptide 2] | – | – | – | +ABCA1 Cells [3, 12]: 13.447 ± 0.549; −ABCA1 Cells [3, 12]: 1.306 ± 0.261; ABCA1 Mediated Efflux % Per 4 h ([3]; J774 mouse macrophage cells, peptides at 30 μg/ml, listed as 3): 12.14 % Per 4 h |
| – | – | – | – | – | – | – | apolipoprotein A-I [Apo A-I] | 15.99%+2.07 | decrease | – | SR-BI Mediated Efflux % Per 4 h [1, 13]: 0.26 % Per 4 h; +ABCA1 Cells [3, 13]: 20.682 ± 0.724; ABCA1 Mediated Efflux % Per 4 h [3, 13]: 18.97 % Per 4 h; −ABCA1 Cells [3, 13]: 1.713 ± 0.409; protein concentration at which lipid efflux begins to show saturation [6]: ~10 µg/mL; time at which cholesterol efflux from ABCA1 cells is first detectable ([6]; 30 hour efflux period): 2 h; cholesterol efflux from control cells (time course) [7]: no significant increase above background; PMA-induced CD11b expression in human monocytes ([4]; listed as ApoA1): significantly reduced |

| Substance | SR-BI Mediated Efflux % Per 4 h [1, 8] | cholesterol efflux from the Fu5AH cells (SRB1 pathway) [1] | +ABCA1 Cells [3, 9] | −ABCA1 Cells [3, 9] | ABCA1 Mediated Efflux % Per 4 h [3, 11] | dose dependence of cholesterol efflux from cells containing the ABCA1 pathway (FIG. 3) [3] | efflux of cholesterol from J774 macrophage cells (ABCA1 pathway) [3] | cholesterol efflux via the ABCA-I pathway [3] | PMA-induced CD11b expression in human monocytes [4] | aortic atherosclerosis compared to controls [5] | other results |
| --- | --- | --- | --- | --- | --- | --- | --- | --- | --- | --- | --- |
| Ac-Ser Pro Leu Leu Glu Ser Ala Lys Val Ser Ala Leu Ser Ala Leu Glu Glu Ala Thr Lys Lys Lys Leu Ser Pro Leu Leu Glu Ser Phe Lys Val Ser Phe Leu Ser Ala Leu Glu Glu Tyr Thr Lys Lys Leu Asn Thr Gln-NH2 (Ac-SPLLESAKVSALSALEEATKKKLSPLLESFKVSFLSALEEYTKKLNTQ-NH2) [Peptide 1] | 0.15 % Per 4 h | negligible or no effect | 20.338 ± 0.136 | 1.624 ± 0.126 | 18.71 % Per 4 h | dose dependent stimulation | stimulated efflux of cholesterol | 15.34%+2.57 | decrease | decrease aortic atherosclerosis | SRB-1 pathway activity (cholesterol efflux) ([1]; Example 17, Fu5AH cells): no SRB-1 pathway activity; SR-BI Mediated Efflux % Per 4 h ([1]; FU5AH rat hepatoma cells, peptides at 30 μg/ml, listed as 5): 0.25 % Per 4 h; V-CAM-1 mRNA levels in HCAECs [2]: decreases; +ABCA1 Cells [3, 10]: 15.718 ± 0.123; −ABCA1 Cells [3, 10]: 1.215 ± 0.288; ABCA1 Mediated Efflux % Per 4 h ([3]; J774 mouse macrophage cells, peptides at 30 μg/ml, listed as 5): 14.50 % Per 4 h; PMA-induced CD11b expression in human monocytes ([4]; listed as SEQ ID NO: 602): significantly reduced; Inhibition of expression of CD11B on human monocytes ([4]; Example 17, p=<0.01, comparable to apo A-I): statistically significant |
